# From patent publication US20070218504A1, “HUMAN LEPTIN-DERIVED POLYPEPTIDES AND USES THEREOF” (UNIVERSITY OF PITTSBURGH, priority 2006, published 2007)
# Entries after “also recorded” stand apart in the source; their conditions may differ.
# Columns and labels:
# [1] = system: tyrosine phosphorylation of STAT3; assay: Leptin-induced tyrosine phosphorylation of STAT3 in HEK293 cells over-expressing OB-Rb in the presence of CRP (Western blot); type: cell-based, human; settings: murine/mouse leptin; HEK293 OB-Rb
# Description: To determine if the interaction between CRP and leptin dampens the cellular actions of leptin, the ability of leptin to stimulate tyrosine phosphorylation of STAT3 and PI3-kinase activity was assessed in the presence of CRP in vitro. HEK293 cells over-expressing OB-Rb were serum starved for 2 hours before addition of leptin and CRP (CHEMICON or EMD Biosciences). Leptin, in the presence or absence of CRP, was pre-incubated in μ-MEM (with additional 1 mM Ca^2+) for 30 minutes at 37° C. before being applied to the cells. After a 30-minute incubation with leptin, the cells were harvested in lysis buffer (18). The resultant protein extract was subjected to a Western blot analysis using an anti-phospho-STAT3 specific antibody (Cell Signaling, Beverly, Mass.). For studies involving primary hypothalamic neurons, the hypothalamus from rats was surgically isolated immediately after euthanasia, and placed in the DMEM for incubation with leptin in the presence or absence of CRP.
# mouse leptin = target: T1, mouse leptin (Mus musculus, UniProt P41160); assay: Immuno-precipitation assay of direct binding of rat CRP and mouse leptin; settings: leptin/CRP mixture and rat serum; Western blot with anti-CRP
# T1 construct: purchased AF Parlow of NHPP, Torrance, CA
# T1 sequence (P41160 22-167): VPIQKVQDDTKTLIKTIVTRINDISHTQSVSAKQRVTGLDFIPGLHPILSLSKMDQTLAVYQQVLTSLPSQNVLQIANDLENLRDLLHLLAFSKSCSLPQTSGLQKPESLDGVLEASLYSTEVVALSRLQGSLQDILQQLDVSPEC
# Description: To explore a physical interaction between CRP and leptin, the direct binding of these proteins was determined by an immuno-precipitation assay. Rat CRP was purified from fresh rat serum to >95% purity employing a previously established affinity-purification protocol (20). […] The purified human- and rat-CRP proteins were pre-mixed with recombinant human and mouse leptin, respectively, before addition of antibodies specific for human- and mouse-leptin. The concentrations of CRP and leptin in the precipitation reaction were all within the physiological ranges that have been observed in humans or rats (11 & 15). In parallel experiments, recombinant leptin also was pre-mixed with human- or rat-serum to allow for direct interaction prior to immuno-precipitation. The protein precipitates obtained were subjected to Western blot assays using specific anti-CRP antibodies.
# [2] = system: insulin-stimulated PI3-kinase activity; assay: Insulin-stimulated PI3-kinase activity in 3T3-L1 adipocytes; type: cell-based
molecule,measurement,setting,value
rat CRP: rat C-reactive protein purified from fresh rat serum to >95% purity (protein) HEDMSKQAFVFPGVSATAYVSLEAESKKPLEAFTVCLYAHADVSRSFSIFSYATKTSFNEILLFWTRGQGFSIAVGGPEILFSASEIPEVPTHICATWESATGIVELWLDGKPRVRKSLQKGYIVGTNASIILGQEQDSYGGGFDANQSLVGDIGDVNMWDFVLSPEQINAVYVGRVFSPNVLNWRALKYETHGDVFIKPQLWPLTDCCES,effect of CRP on murine leptin-induced tyrosine phosphorylation of STAT3,[1],attenuating effects; also recorded: attenuate
same,co-precipitation of CRP with anti mouse-leptin antibody,mouse leptin,could bring down rat CRP
same,effect on insulin-stimulated PI3-kinase activity,[2],did not block
